Results on one molecule are retold here after patent US20210388116A1 (University of California, published 2021).

Where no end group is shown, it is not given here. The star is where a group is joined. Biotin = O=C1N[C@H]2[C@H](CS[C@H]2CCCCC(=O)*)N1

The target of experiment [1] is T1, G6A/OxCE reaction product (biotin-GDGDGA peptide subjected to the OxCE modification procedure).
T1 construct: Negative control peptide in which the C-terminal Lys is replaced with Ala
T1 peptide: Biotin-GDGDGA
Briefly: peptide ELISA on streptavidin plates. The method, then: Biotinylated short peptides G6A-OH, G6K-OH (non-modified) or G6K-OxCE (modified with OxCE) were immobilized to streptavidin pre-coated plates (Eagle Biosciences, Amherst, N.H.), at 10 μg/mL in PBS, overnight at 4° C. After washing with PBS, AG23 was added at 1 μg/mL in 1% BSA-TBS and incubated at room temperature for 90 min. The remaining ELISA was completed as described above.
In general terms: An ELISA detects its analyte on a solid surface through an enzyme-linked reagent.

The target of experiment [2] is T2, copper oxidized LDL (CuOxLDL) (human, UniProt P04114 28-4563, limits assumed, copper-oxidized; enriched in oxidized phospholipid (OxPL); positions not stated).
T2 construct: A modified lipoprotein particle (protein plus lipid), prepared as in Gonen et al
T2 sequence (P04114 28-4563 limits assumed): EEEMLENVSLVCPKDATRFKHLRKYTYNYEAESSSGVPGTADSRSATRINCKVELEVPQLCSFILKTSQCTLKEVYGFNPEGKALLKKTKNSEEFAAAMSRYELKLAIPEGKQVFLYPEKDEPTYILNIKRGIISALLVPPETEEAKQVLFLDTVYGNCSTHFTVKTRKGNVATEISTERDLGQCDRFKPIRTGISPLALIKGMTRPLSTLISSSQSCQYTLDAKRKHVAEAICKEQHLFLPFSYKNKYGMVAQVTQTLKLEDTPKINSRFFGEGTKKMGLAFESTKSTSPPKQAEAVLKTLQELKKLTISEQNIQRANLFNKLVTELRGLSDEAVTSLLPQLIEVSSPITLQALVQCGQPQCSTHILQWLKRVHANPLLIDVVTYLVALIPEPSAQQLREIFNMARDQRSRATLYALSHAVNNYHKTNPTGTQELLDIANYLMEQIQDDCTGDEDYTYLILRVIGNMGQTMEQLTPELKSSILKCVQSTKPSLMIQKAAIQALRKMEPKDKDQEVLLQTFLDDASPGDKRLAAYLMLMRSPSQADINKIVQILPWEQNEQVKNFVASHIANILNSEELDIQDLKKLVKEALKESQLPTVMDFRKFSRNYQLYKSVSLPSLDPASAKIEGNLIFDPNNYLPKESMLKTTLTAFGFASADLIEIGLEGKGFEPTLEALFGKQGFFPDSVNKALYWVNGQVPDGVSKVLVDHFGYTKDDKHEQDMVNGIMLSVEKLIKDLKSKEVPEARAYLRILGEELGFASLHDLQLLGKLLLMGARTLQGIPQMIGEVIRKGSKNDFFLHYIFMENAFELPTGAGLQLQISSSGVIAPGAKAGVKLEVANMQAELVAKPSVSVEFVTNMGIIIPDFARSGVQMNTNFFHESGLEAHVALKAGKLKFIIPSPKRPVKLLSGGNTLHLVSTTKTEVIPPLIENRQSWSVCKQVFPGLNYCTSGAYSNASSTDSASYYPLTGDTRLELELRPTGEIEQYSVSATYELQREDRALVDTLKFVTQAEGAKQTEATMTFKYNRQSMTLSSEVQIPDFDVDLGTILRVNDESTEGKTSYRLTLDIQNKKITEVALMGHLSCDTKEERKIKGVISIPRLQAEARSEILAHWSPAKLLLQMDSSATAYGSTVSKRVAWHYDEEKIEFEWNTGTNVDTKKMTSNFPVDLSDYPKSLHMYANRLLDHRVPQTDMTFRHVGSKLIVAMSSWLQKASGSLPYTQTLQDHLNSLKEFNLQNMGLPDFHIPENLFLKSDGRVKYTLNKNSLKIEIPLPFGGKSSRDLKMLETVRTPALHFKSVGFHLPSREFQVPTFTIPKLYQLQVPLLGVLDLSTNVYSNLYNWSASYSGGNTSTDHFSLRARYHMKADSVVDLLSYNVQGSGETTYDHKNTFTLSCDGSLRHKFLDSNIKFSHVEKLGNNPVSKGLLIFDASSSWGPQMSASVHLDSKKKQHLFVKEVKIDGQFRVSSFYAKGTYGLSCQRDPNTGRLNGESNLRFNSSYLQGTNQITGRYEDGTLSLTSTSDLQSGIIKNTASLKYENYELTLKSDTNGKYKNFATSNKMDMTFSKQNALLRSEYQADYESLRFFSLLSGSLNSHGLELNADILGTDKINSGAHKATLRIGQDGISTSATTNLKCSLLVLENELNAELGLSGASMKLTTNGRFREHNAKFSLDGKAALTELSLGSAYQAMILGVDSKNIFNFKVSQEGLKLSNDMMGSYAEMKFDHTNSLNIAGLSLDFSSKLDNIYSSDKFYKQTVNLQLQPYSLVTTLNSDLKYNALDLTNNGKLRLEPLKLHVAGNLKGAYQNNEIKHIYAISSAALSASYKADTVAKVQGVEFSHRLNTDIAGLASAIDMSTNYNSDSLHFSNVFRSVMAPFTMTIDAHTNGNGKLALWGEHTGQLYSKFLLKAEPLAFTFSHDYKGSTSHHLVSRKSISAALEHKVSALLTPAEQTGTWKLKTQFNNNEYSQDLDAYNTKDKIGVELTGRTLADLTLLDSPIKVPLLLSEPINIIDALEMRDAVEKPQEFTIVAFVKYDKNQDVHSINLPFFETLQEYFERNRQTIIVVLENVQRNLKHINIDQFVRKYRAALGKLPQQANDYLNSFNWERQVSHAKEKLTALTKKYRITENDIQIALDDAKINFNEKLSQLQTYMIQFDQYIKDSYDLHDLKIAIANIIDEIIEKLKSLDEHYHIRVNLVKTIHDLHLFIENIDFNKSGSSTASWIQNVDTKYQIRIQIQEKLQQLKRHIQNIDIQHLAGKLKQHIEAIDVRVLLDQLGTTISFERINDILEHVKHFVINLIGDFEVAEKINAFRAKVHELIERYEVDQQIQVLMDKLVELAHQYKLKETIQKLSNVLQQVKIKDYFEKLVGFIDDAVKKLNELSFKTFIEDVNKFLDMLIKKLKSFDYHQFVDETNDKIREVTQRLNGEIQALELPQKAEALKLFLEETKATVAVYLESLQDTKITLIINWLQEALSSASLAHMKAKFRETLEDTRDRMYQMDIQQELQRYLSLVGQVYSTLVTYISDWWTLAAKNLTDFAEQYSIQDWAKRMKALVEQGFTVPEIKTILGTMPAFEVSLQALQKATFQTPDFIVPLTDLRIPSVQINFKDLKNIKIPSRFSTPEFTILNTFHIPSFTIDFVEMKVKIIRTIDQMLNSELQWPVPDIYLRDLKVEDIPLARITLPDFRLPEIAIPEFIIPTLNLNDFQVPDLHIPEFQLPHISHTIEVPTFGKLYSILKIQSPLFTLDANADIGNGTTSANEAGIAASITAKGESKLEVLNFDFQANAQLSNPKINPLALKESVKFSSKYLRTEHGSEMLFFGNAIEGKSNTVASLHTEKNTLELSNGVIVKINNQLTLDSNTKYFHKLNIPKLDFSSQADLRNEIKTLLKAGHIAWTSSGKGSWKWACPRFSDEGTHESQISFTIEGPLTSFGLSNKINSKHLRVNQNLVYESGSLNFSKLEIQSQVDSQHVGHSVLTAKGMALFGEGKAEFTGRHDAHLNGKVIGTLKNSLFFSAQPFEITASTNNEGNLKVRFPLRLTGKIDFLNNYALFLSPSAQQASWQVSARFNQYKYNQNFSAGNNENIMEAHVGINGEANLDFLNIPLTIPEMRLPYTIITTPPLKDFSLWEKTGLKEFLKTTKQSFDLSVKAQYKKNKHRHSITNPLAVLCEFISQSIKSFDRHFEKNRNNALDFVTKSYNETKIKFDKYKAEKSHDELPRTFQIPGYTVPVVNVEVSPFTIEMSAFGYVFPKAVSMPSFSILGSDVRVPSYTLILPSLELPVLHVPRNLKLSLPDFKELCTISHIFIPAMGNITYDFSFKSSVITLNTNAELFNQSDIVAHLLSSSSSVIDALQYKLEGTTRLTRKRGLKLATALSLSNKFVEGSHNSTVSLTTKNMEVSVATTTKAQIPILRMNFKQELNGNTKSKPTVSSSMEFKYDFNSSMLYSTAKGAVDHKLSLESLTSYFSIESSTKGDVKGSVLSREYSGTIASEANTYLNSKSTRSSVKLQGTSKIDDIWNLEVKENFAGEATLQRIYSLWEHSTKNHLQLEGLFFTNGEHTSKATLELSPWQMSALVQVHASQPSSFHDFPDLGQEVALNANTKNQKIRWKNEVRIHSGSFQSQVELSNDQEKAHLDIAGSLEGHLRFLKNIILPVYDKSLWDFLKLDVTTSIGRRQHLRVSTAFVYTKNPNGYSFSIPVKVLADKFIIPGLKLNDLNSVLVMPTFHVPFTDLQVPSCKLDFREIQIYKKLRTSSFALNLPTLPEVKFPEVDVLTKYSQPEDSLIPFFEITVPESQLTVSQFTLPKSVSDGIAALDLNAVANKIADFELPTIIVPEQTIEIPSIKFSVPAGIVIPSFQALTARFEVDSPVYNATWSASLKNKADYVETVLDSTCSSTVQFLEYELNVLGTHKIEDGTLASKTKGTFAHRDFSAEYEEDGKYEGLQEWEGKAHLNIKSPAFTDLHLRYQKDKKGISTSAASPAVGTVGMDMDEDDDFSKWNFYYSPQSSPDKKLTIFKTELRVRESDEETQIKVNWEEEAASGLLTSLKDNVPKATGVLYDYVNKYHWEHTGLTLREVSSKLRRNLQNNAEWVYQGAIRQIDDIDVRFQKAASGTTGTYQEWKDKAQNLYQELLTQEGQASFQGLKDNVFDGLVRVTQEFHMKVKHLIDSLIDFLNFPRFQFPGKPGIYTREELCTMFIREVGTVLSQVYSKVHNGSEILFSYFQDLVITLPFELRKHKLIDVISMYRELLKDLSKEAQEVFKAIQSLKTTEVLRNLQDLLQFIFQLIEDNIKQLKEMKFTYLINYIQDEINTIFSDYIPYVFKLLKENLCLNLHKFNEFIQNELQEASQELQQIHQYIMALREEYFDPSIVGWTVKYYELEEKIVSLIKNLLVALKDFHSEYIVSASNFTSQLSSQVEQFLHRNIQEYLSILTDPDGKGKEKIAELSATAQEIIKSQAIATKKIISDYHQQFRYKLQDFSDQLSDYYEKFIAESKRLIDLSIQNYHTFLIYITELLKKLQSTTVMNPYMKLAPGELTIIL
Briefly: chemiluminescent ELISA on plated antigen. The method, then: Representative gel and blots from 20 repeats. (B) Representative results of AG23 (0.125 μg/mL) binding to BSA, OxCE-BSA, MDA-LDL and CuOxLDL (5 μg/mL). Four different OxCE-BSA preparations were tested in 12 independent experiments, with AG23 concentrations ranging from […]. […] Mean±SD; one-way ANOVA with multiple comparisons; ****, P<0.0001. (C) Competition ELISA: AG23 (0.01 μg/mL) was preincubated in the absence or presence of increasing concentrations of non-modified KLH or OxCE-KLH. Immune complexes were spun down, and supernatants were tested for binding to OxCE-BSA (5 μg/mL). Each data point is the mean of two independent assays in technical triplicates. (D) AG23 (1 μg/mL) binding to 10 μg/mL of non-modified G6K-OH and G6A-OH peptides, and the peptides subjected to the OxCE covalent modification. […] Mean±SD; n=6 for G6K and n=2 for G6A, each in technical duplicates; one-way ANOVA with multiple comparisons; **, P<0.01. (E-F) AG23 (0.15 μg/mL) was preincubated overnight with non-modified (250 μg/mL) or OxCE-modified (10-250 μg/mL) BSA or GDGDGK-OH peptide. […] After washes, AG23 binding to the wells was measured. […]
Monoclonal antibody binding to an array of epitopes was measured by chemiluminescent ELISA as described in Gonen et al. In brief, wells were coated with antigens at 5 μg/mL in PBS overnight at 4° C. […]

B1: monoclonal Ab (mAb) AG23 (antibody, mouse IgG1, kappa, V domains shown)
VH: EVQLQQSGPELVKPGASVKISCKASGYSFTGYYMNWVRQSPEKNLEWIGEINPYTGGTTYNQKFKARATLTVDKSSSTAYVQLKSLTSEDSAVYFCVSWDYDLDYWGQGTTLTVSS
VL: QIVLTQSPAFMSASPGEKVTMTCSASSSVSYMHWYQQKSGTSPKRWIYATSKVASGVPARFSGSGSGTSYSLTISSMEAEDAATYYCLQWSSNPYTFGGGTKLEIKR
notes: Murine hybridoma IgG purified over Protein A/G; Used biotinylated in some sandwich ELISAs; also called Clone 23; colony #23
With B1, the binding result in experiment [1] is given as “no binding (tested: AG23 1 µg/mL; peptide 10 µg/mL)”; in experiment [2], “no binding (tested: AG23 0.125 µg/mL; antigen 5 µg/mL)”.
